Values quoted from earlier work, collected in paper PMC3417803.
Where two headings read alike, the source gives them in different places.

What was measured:
Midkine (Homo sapiens) [1] = target: Midkine (Homo sapiens) (UniProt P21741)
Midkine (Homo sapiens) [2] = target: Midkine (Homo sapiens) (UniProt P21741); remark: listed apart in the source

Sequence of UniProt P21741 (P21741 21-143): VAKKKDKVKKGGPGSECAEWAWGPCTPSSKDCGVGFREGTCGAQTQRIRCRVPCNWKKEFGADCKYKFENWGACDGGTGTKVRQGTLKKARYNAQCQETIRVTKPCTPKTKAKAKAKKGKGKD

PTPζ (from UniProt P23471)
Kd (Midkine (Homo sapiens) [1]): 0.56 nM | Kd (Midkine (Homo sapiens) [2]): 8.8 nM
